± gives the standard deviation of the averaged measurements.
The sequences below were run on ATP (assay: switch fluorescence ratio, 500 uM ATP over buffer (Cy3 cluster intensity, sum of 5 cycles each) (fold (ratio)); higher = stronger signal-on switching upon ATP binding; sequences stand for … in TCGTCGGCAGCGTCAGATGTGTATAAGAGACAGTTTTTTTTTTTTTTTTTTTTTTTTT…TC). Details: aptamer strand: ATP DNA aptamer (quencher-CACCTGGGGGAGTATTGCGGAGGAAGG + anchor), 100 nM annealed; ATP concentration: 500 uM.
Method in brief: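 Per cluster, summed Cy3 intensity from the target cycles was divided by that from the buffer cycles to give the fluorescence ratio, then averaged per switch-domain sequence. Clusters outside 100-1000 RFU were excluded. The Cy3-labelled switching-strand clusters, on a modified Illumina MiSeq flow-cell, were annealed to 100 nM quencher-labelled ATP aptamer and imaged in selection buffer, then after 15 min with 500 uM ATP at 22 °C, for five cycles with NaOH stripping and re-annealing between them.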
For TCGTGTACTG, the switch fluorescence ratio was 1.041 ± 0.006. In the case of TCGTGTGGGG, the switch fluorescence ratio is reported as 1.02 ± 0.048. With TCGTGTTACT the switch fluorescence ratio was 1.005 ± 0.008. TCGTTACCTT gave a switch fluorescence ratio of 1.135 ± 0.0013. Sequence TCGTTAGGGG has a switch fluorescence ratio of 0.999 ± 0.019. Sequence TCGTTATCTT has a switch fluorescence ratio of 0.979 ± 0.013. Work on TCGTTATGTA yielded a switch fluorescence ratio of 0.992 ± 0.018. In the case of TCGTTATTAA, the switch fluorescence ratio is reported as 1 ± 0.012. Sequence TCGTTATTGT has a switch fluorescence ratio of 1.01 ± 0.021. TCGTTATTTG showed a switch fluorescence ratio of 1.004 ± 0.0078. TCGTTCAGCG was tested, and the switch fluorescence ratio was 0.997 ± 0.019. In the case of TCGTTCGTAT, the switch fluorescence ratio is reported as 0.9875 ± 0.004. Work on TCGTTGATGC yielded a switch fluorescence ratio of 1.08 ± 0.08. In the case of TCGTTGATTT, the switch fluorescence ratio is reported as 1.016 ± 0.01. Sequence TCGTTGCAGT has a switch fluorescence ratio of 1.02 ± 0.018. With TCGTTGCATG the switch fluorescence ratio was 1.01 ± 0.065. For TCGTTGGACT, the switch fluorescence ratio was 1.01 ± 0.0029. With TCGTTGGTGG the switch fluorescence ratio was 0.984 ± 0.06. TCGTTGTTTT was tested, and the switch fluorescence ratio was 1.0216 ± 0.00093. TCGTTTAACA showed a switch fluorescence ratio of 0.9602 ± 0.0092. TCGTTTATAT was tested, and the switch fluorescence ratio was 1.01 ± 0.04. With TCGTTTGGTA the switch fluorescence ratio was 0.958 ± 0.027. With TCGTTTGGTC the switch fluorescence ratio was 0.986 ± 0.01. Work on TCGTTTGGTT yielded a switch fluorescence ratio of 1.04 ± 0.026. TCGTTTTGCC was tested, and the switch fluorescence ratio was 0.956 ± 0.02. TCGTTTTGCT was tested, and the switch fluorescence ratio was 0.981 ± 0.017. Work on TCTAAAGGGA yielded a switch fluorescence ratio of 1.03 ± 0.024. TCTAAAGGGT showed a switch fluorescence ratio of 0.9988 ± 0.0021. With TCTAAATAGG the switch fluorescence ratio was 0.9908 ± 0.0032. For TCTAAGCCAT, the switch fluorescence ratio was 1.05 ± 0.017. TCTAAGGATT gave a switch fluorescence ratio of 1.02 ± 0.022. Work on TCTAAGGGGG yielded a switch fluorescence ratio of 1.015 ± 0.0074. TCTAAGTCCA was tested, and the switch fluorescence ratio was 0.989 ± 0.068. In the case of TCTACGCACT, the switch fluorescence ratio is reported as 2.62 ± 0.15. In the case of TCTACTGGGC, the switch fluorescence ratio is reported as 1.05 ± 0.1. TCTAGAACGC showed a switch fluorescence ratio of 1.01 ± 0.013. In the case of TCTAGACTCA, the switch fluorescence ratio is reported as 1.18 ± 0.29. TCTAGCCGGT showed a switch fluorescence ratio of 0.9878 ± 0.0085. TCTAGGACGT gave a switch fluorescence ratio of 1.02 ± 0.019. TCTAGTGGCA showed a switch fluorescence ratio of 0.98 ± 0.038. TCTAGTGTGC gave a switch fluorescence ratio of 0.9772 ± 0.0086. With TCTATCAGGG the switch fluorescence ratio was 0.995 ± 0.011. In the case of TCTATCATGA, the switch fluorescence ratio is reported as 0.988 ± 0.013. TCTATTAGTA was tested, and the switch fluorescence ratio was 0.932 ± 0.062. TCTATTATAC gave a switch fluorescence ratio of 1.23 ± 0.13. TCTATTGAGC showed a switch fluorescence ratio of 1.032 ± 0.0049. TCTATTGGA was tested, and the switch fluorescence ratio was 0.9949 ± 0.0037. In the case of TCTCAAATTT, the switch fluorescence ratio is reported as 0.975 ± 0.029. In the case of TCTCAATGCT, the switch fluorescence ratio is reported as 1.21 ± 0.2. TCTCACGGGG showed a switch fluorescence ratio of 1.29 ± 0.33. Sequence TCTCGGCATT has a switch fluorescence ratio of 1.46 ± 0.23. TCTCGGCTAT was tested, and the switch fluorescence ratio was 2.98 ± 0.2. TCTCGTGAGA gave a switch fluorescence ratio of 0.997 ± 0.053. In the case of TCTCTATAGG, the switch fluorescence ratio is reported as 0.9834 ± 0.0036. Sequence TCTCTATGTG has a switch fluorescence ratio of 0.966 ± 0.036. Sequence TCTCTATTT has a switch fluorescence ratio of 0.965 ± 0.048. In the case of TCTCTGTGTT, the switch fluorescence ratio is reported as 1.027 ± 0.0019. For TCTCTGTTGA, the switch fluorescence ratio was 1.01 ± 0.057. TCTGAAAGTC gave a switch fluorescence ratio of 0.9963 ± 0.0057. For TCTGAAGGAG, the switch fluorescence ratio was 1.01 ± 0.013. TCTGATGGAA gave a switch fluorescence ratio of 1.06 ± 0.037. In the case of TCTGATTGGT, the switch fluorescence ratio is reported as 0.9945 ± 0.0034. TCTGCATGTT showed a switch fluorescence ratio of 1.02 ± 0.012. For TCTGGAAGGC, the switch fluorescence ratio was 1.29 ± 0.25. Sequence TCTGGAGAGG has a switch fluorescence ratio of 1.01 ± 0.034. Work on TCTGGATTCA yielded a switch fluorescence ratio of 0.986 ± 0.027. With TCTGGATTGG the switch fluorescence ratio was 0.961 ± 0.029. For TCTGGCCGGC, the switch fluorescence ratio was 0.986 ± 0.028. TCTGGCGTAA showed a switch fluorescence ratio of 1.79 ± 1.1. TCTGGGAAAG showed a switch fluorescence ratio of 1 ± 0.013. With TCTGGGGCCG the switch fluorescence ratio was 1.02 ± 0.065. Sequence TCTGGGTCGC has a switch fluorescence ratio of 1.02 ± 0.017. TCTGGGTTGG gave a switch fluorescence ratio of 1.013 ± 0.0074. TCTGGTGCAT gave a switch fluorescence ratio of 1.17 ± 0.14. In the case of TCTGGTTAAA, the switch fluorescence ratio is reported as 0.982 ± 0.013. TCTGGTTAGC showed a switch fluorescence ratio of 1.03 ± 0.026. TCTGGTTTGG was tested, and the switch fluorescence ratio was 1.03 ± 0.049. TCTGTAGCTG gave a switch fluorescence ratio of 1.3 ± 0.015. With TCTGTAGTTG the switch fluorescence ratio was 0.997 ± 0.04. TCTGTCCG was tested, and the switch fluorescence ratio was 1.05 ± 0.14. TCTGTCTATA was tested, and the switch fluorescence ratio was 1.03 ± 0.026. TCTGTCTGAG gave a switch fluorescence ratio of 0.988 ± 0.027. Work on TCTGTGCCTT yielded a switch fluorescence ratio of 1.06 ± 0.069. For TCTGTGTACG, the switch fluorescence ratio was 1.04 ± 0.047. TCTGTGTTAT gave a switch fluorescence ratio of 1 ± 0.026. With TCTGTGTTGA the switch fluorescence ratio was 1 ± 0.011. Sequence TCTGTTAGGA has a switch fluorescence ratio of 1 ± 0.035. TCTGTTCTTG was tested, and the switch fluorescence ratio was 0.987 ± 0.012. Work on TCTGTTGACG yielded a switch fluorescence ratio of 1.0236 ± 0.00081. TCTGTTGCAG showed a switch fluorescence ratio of 0.999 ± 0.024. For TCTGTTTGTA, the switch fluorescence ratio was 0.9816 ± 0.0075. TCTTAAAAT gave a switch fluorescence ratio of 1.006 ± 0.0097. TCTTAAGGGA showed a switch fluorescence ratio of 0.979 ± 0.025. TCTTAATTTT showed a switch fluorescence ratio of 0.973 ± 0.024. Sequence TCTTACAATA has a switch fluorescence ratio of 1.14 ± 0.091. Work on TCTTACAATC yielded a switch fluorescence ratio of 1.1 ± 0.095. TCTTAGAGGG showed a switch fluorescence ratio of 0.991 ± 0.017. For TCTTAGGAGG, the switch fluorescence ratio was 0.9691 ± 0.0023. Work on TCTTAGGCGC yielded a switch fluorescence ratio of 1.03 ± 0.029. TCTTAGGCGT gave a switch fluorescence ratio of 1.02 ± 0.022. Sequence TCTTAGGGGA has a switch fluorescence ratio of 0.998 ± 0.017. TCTTAGTTGT was tested, and the switch fluorescence ratio was 0.988 ± 0.024. Sequence TCTTATCTTG has a switch fluorescence ratio of 0.978 ± 0.037. For TCTTCAAGTT, the switch fluorescence ratio was 0.988 ± 0.031. Sequence TCTTCCTGGA has a switch fluorescence ratio of 1.08 ± 0.039. In the case of TCTTCGTTTT, the switch fluorescence ratio is reported as 1.23 ± 0.32. In the case of TCTTGAACTT, the switch fluorescence ratio is reported as 1 ± 0.018. In the case of TCTTGAATGG, the switch fluorescence ratio is reported as 0.986 ± 0.0051. TCTTGATCTA showed a switch fluorescence ratio of 1.015 ± 0.0098. Sequence TCTTGATCTG has a switch fluorescence ratio of 1.016 ± 0.0021. With TCTTGCATGT the switch fluorescence ratio was 1.02 ± 0.028. In the case of TCTTGCCGCT, the switch fluorescence ratio is reported as 1.01 ± 0.061. With TCTTGGATCT the switch fluorescence ratio was 0.987 ± 0.055. TCTTGGGGAC showed a switch fluorescence ratio of 1.14 ± 0.2. TCTTGGGGGT was tested, and the switch fluorescence ratio was 1.03 ± 0.049. TCTTGTAACT was tested, and the switch fluorescence ratio was 1.01 ± 0.017. TCTTGTACGT was tested, and the switch fluorescence ratio was 1.01 ± 0.03. With TCTTTAAAGA the switch fluorescence ratio was 0.9785 ± 0.0083. For TCTTTAGGGA, the switch fluorescence ratio was 1.02 ± 0.054. TCTTTCATAT was tested, and the switch fluorescence ratio was 0.9392 ± 0.0062. Sequence TCTTTGGGAT has a switch fluorescence ratio of 0.962 ± 0.033. For TCTTTGTTAC, the switch fluorescence ratio was 1.05 ± 0.022. TCTTTTGAGG showed a switch fluorescence ratio of 1.02 ± 0.056. TCTTTTGGGC gave a switch fluorescence ratio of 1.02 ± 0.076. TCTTTTTGGA was tested, and the switch fluorescence ratio was 1.017 ± 0.0079. In the case of TCTTTTTGGT, the switch fluorescence ratio is reported as 0.992 ± 0.018. With TGAAAAAACA the switch fluorescence ratio was 1.02 ± 0.019. TGAAAAAATT was tested, and the switch fluorescence ratio was 1.02 ± 0.071. With TGAAAAAGTT the switch fluorescence ratio was 1.32 ± 0.47. In the case of TGAAAAATTG, the switch fluorescence ratio is reported as 0.985 ± 0.053. TGAAAAGAAG was tested, and the switch fluorescence ratio was 1.029 ± 0.0061. In the case of TGAAAAGGTC, the switch fluorescence ratio is reported as 0.982 ± 0.063. In the case of TGAAAAGTCG, the switch fluorescence ratio is reported as 0.99334 ± 0.00072. With TGAAAATCTT the switch fluorescence ratio was 1.18 ± 0.25. Work on TGAAAATTGA yielded a switch fluorescence ratio of 0.999 ± 0.017. TGAAACTATT gave a switch fluorescence ratio of 1.01 ± 0.027. With TGAAACTTGA the switch fluorescence ratio was 1.042 ± 0.0055. For TGAAAGGGGG, the switch fluorescence ratio was 0.99 ± 0.014. With TGAAATATGG the switch fluorescence ratio was 1 ± 0.017. In the case of TGAAATGCTA, the switch fluorescence ratio is reported as 1.036 ± 0.0073. In the case of TGAAATTAGT, the switch fluorescence ratio is reported as 1.01 ± 0.013. TGAAATTGGA showed a switch fluorescence ratio of 0.999 ± 0.015. TGAAATTTTG showed a switch fluorescence ratio of 1.01 ± 0.015. With TGAACATTTG the switch fluorescence ratio was 1.03 ± 0.025. TGAACCGCTA showed a switch fluorescence ratio of 1.81 ± 0.16. Sequence TGAACGGGTG has a switch fluorescence ratio of 1.04 ± 0.068. Sequence TGAACTTGAC has a switch fluorescence ratio of 1.14 ± 0.052. TGAAGAACGC gave a switch fluorescence ratio of 1.07 ± 0.021. Work on TGAAGACAAC yielded a switch fluorescence ratio of 1.04 ± 0.025. In the case of TGAAGATTTT, the switch fluorescence ratio is reported as 0.9704 ± 0.0081. Sequence TGAAGCGGCG has a switch fluorescence ratio of 0.942 ± 0.023. TGAAGCTGAT showed a switch fluorescence ratio of 1.02 ± 0.059. TGAAGCTGGG was tested, and the switch fluorescence ratio was 1.07 ± 0.12.

From the supplement of paper PMC10126150
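Note: ATP exposure 15 min at 22 °C before imaging.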
